Results from US20100272685A1.

Assays:
[1] = molecular target: AAV2/5 vector particle (AAV5 capsid proteins VP1, VP2, VP3) (adeno-associated virus 5); experiment: cell-based or functional assay
[2] = molecular target: AAV2/po1 hybrid vector particle (AAVpo1 capsid of VP1, VP2, VP3) (porcine adeno-associated virus AAVpo1); experiment: cell-based or functional assay

Substance: Pooled Human Ig (Immune Globulin Intravenous (Human) Carimune NF)
- concentration of the pooled Human Ig required to neutralise >50% of AAV-LacZ particles [1]: 7.5e-05 mg/mL
- concentration of the pooled Human Ig required to neutralise >50% of AAV-LacZ particles [2]: > 12 mg/mL
